# Data reported in article PMC4641749 (Molecular microbiology, 2015).
# Read-outs that look alike come from different tables or passages of the source.
# B1: FtsZ (wild type, Escherichia coli) (natural protein, E. coli, UniProt P0A9A6 1-383, looked up)
# chain: MFEPMELTNDAVIKVIGVGGGGGNAVEHMVRERIEGVEFFAVNTDAQALRKTAVGQTIQIGSGITKGLGAGANPEVGRNAADEDRDALRAALEGADMVFIAAGMGGGTGTGAAPVVAEVAKDLGILTVAVVTKPFNFEGKKRMAFAEQGITELSKHVDSLITIPNDKLLKVLGRGISLLDAFGAANDVLKGAVQGIAELITRPGLMNVDFADVRTVMSEMGYAMMGSGVASGEDRAEEAAEMAISSPLLEDIDLSGARGVLVNITAGFDLRLDEFETVGNTIRAFASDNATVVIGTSLDPDMNDELRVTVVATGIGMDKRPEITLVTNKQVQQPVMDRYQQHGMAPLTQEQKPVAKVVNDNAPQTAKEPDYLDIPAFLRKQAD
# B2: FtsZ_(L169R) (Escherichia coli FtsZ with the L169R lesion) (natural protein, E. coli, UniProt P0A9A6 1-383, looked up)
# chain: MFEPMELTNDAVIKVIGVGGGGGNAVEHMVRERIEGVEFFAVNTDAQALRKTAVGQTIQIGSGITKGLGAGANPEVGRNAADEDRDALRAALEGADMVFIAAGMGGGTGTGAAPVVAEVAKDLGILTVAVVTKPFNFEGKKRMAFAEQGITELSKHVDSLITIPNDKLRKVLGRGISLLDAFGAANDVLKGAVQGIAELITRPGLMNVDFADVRTVMSEMGYAMMGSGVASGEDRAEEAAEMAISSPLLEDIDLSGARGVLVNITAGFDLRLDEFETVGNTIRAFASDNATVVIGTSLDPDMNDELRVTVVATGIGMDKRPEITLVTNKQVQQPVMDRYQQHGMAPLTQEQKPVAKVVNDNAPQTAKEPDYLDIPAFLRKQAD
# Tests used:
# [1] = molecular target: the molecule itself; experiment: sedimentation assay of polymers
# [2] = molecular target: the molecule itself; experiment: sedimentation assay of polymers; remark: listed apart in the source
Protein,binding result [1],binding result [2]
B1,binds,–
B2,–,binds
